Among the data in patent US20170266254A1 (AILERON THERAPEUTICS, published 2017) are IC50 values, retold here.

The target in the test is T1, C-terminally 6x Histidine-tagged Beta-Catenin (aa 134-668, 59 KD) (UniProt P35222 134-668).
T1 construct: range 134-668; Armadillo repeat region
T1 sequence: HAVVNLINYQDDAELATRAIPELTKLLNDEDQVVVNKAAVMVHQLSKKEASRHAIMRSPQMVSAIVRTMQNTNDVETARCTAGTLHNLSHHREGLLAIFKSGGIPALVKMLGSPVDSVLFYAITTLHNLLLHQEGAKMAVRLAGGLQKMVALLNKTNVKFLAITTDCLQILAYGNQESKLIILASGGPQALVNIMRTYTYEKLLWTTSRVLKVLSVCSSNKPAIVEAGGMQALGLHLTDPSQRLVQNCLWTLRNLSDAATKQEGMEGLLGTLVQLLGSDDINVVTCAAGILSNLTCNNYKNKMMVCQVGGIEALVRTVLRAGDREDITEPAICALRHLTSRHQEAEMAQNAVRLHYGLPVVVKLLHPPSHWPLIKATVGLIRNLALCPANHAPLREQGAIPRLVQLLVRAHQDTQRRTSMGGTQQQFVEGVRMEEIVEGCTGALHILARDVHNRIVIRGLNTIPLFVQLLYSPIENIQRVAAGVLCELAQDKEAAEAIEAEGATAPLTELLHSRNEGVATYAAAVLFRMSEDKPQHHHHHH
The experiment in a line: competitive fluorescence polarization, FAM-labelled linear probe as competitor, His-tagged beta-catenin 134-668. The protocol: The following experiments are performed at room temperature unless otherwise noted. First, an assay buffer is prepared composed of 25 mM Tris-Hcl pH 7.5, 200 mM Sodium Chloride, and 5 mM CHAPS. Next, 1M DTT is added to assay buffer to a final concentration of 2 mM. […] Forty μl of this protein stock is added to all but six wells of a 96 well plate (which will serve as the free peptide and Blank). Test competitor peptides are diluted from 1 mM DMSO stocks to 2× working stocks in assay buffer. Further dilutions are made in assay buffer-DMSO as to maintain a constant DMSO concentration in all wells. The dilution is carried out such that the peptides have a working concentration range of 40 μM-0.7 μM (2×). As a benchmark, a linear, non-crosslinked peptide competitor is prepared as above but with a working concentration range of 13-0.7 μM. Fifty μl of the competitor 2× stocks are added to the 40 μl of protein solution previously transferred into the assay 96 well plate. Next, a 10× stock of the fluorescent probe is prepared. The probe is identical to the linear benchmark peptide except for the n-terminal conjugation of a FAM flourophore with Beta-Alanine spacer. A 1 mM DMSO stock of the probe is serially diluted to a final concentration of 25 nM (10×) and 10 μl of this stock is added to all wells except for those that will serve as the blank. The assay plate is stored in the dark and the reaction is allowed to run at room temperature for three hours. The reaction is then read on a Biotek Synergy 2 with the following settings: 100 ms delay, 40 measurements per well, with excitation filters of […], and emission filters of […]. Data is then analyzed in Graphpad Prism.

In general, IC50 refers to the point on the concentration scale where inhibition reaches its midpoint.

Bridges are numbered along the chain shown (N, C = ends). [ ]: non-standard residue; d: D form. S5 = C=CCCC[C@](C)(N)C(=O)O; Nle = CCCC[C@H](N)C(=O)O

B1: SP11 (peptide)
peptide: Ac-SAERDLA[S5]VKS[S5]LVNESEKR-NH2
modifications: staple 8-12
SMILES: CC(=O)N[C@@H](CO)C(=O)N[C@@H](C)C(=O)N[C@@H](CCC(=O)O)C(=O)N[C@@H](CCCNC(=N)N)C(=O)N[C@@H](CC(=O)O)C(=O)N[C@@H](CC(C)C)C(=O)N[C@@H](C)C(=O)N[C@@]1(C)CCCC=CCCC[C@@](C)(C(=O)N[C@@H](CC(C)C)C(=O)N[C@H](C(=O)N[C@@H](CC(N)=O)C(=O)N[C@@H](CCC(=O)O)C(=O)N[C@@H](CO)C(=O)N[C@@H](CCC(=O)O)C(=O)N[C@@H](CCCCN)C(=O)N[C@@H](CCCNC(=N)N)C(N)=O)C(C)C)NC(=O)[C@H](CO)NC(=O)[C@H](CCCCN)NC(=O)[C@H](C(C)C)NC1=O
Consider B1, for which the IC50 is no less than 100 µM.

B2: SP34 (peptide)
peptide: Ac-RDLANVK[S5]S[Nle]V[S5]ES-NH2
modifications: staple 8-12
SMILES: CCCC[C@@H]1NC(=O)[C@H](CO)NC(=O)[C@@](C)(NC(=O)[C@H](CCCCN)NC(=O)[C@@H](NC(=O)[C@H](CC(N)=O)NC(=O)[C@H](C)NC(=O)[C@H](CC(C)C)NC(=O)[C@H](CC(=O)O)NC(=O)[C@H](CCCNC(=N)N)NC(C)=O)C(C)C)CCCC=CCCC[C@@](C)(C(=O)N[C@@H](CCC(=O)O)C(=O)N[C@@H](CO)C(N)=O)NC(=O)[C@H](C(C)C)NC1=O
notes: also called Ac-RDLANVK$SNleV$ES-NH2
With B2, the 50% inhibitory concentration (IC50) was no less than 100 µM.

B3: SP35 (peptide)
peptide: Ac-RGLANVK[S5]SLV[S5]ES-NH2
modifications: staple 8-12
SMILES: CC(=O)N[C@@H](CCCNC(=N)N)C(=O)NCC(=O)N[C@@H](CC(C)C)C(=O)N[C@@H](C)C(=O)N[C@@H](CC(N)=O)C(=O)N[C@H](C(=O)N[C@@H](CCCCN)C(=O)N[C@@]1(C)CCCC=CCCC[C@@](C)(C(=O)N[C@@H](CCC(=O)O)C(=O)N[C@@H](CO)C(N)=O)NC(=O)[C@H](C(C)C)NC(=O)[C@H](CC(C)C)NC(=O)[C@H](CO)NC1=O)C(C)C
notes: also called Ac-RGLANVK$SLV$ES-NH2
Take B3: the IC50 is no less than 100 µM.

B4: SP2 (peptide)
peptide: Ac-RDLADVK[S5]SLV[S5]ES-NH2
modifications: staple 8-12
SMILES: CC(=O)N[C@@H](CCCNC(=N)N)C(=O)N[C@@H](CC(=O)O)C(=O)N[C@@H](CC(C)C)C(=O)N[C@@H](C)C(=O)N[C@@H](CC(=O)O)C(=O)N[C@H](C(=O)N[C@@H](CCCCN)C(=O)N[C@@]1(C)CCCC=CCCC[C@@](C)(C(=O)N[C@@H](CCC(=O)O)C(=O)N[C@@H](CO)C(N)=O)NC(=O)[C@H](C(C)C)NC(=O)[C@H](CC(C)C)NC(=O)[C@H](CO)NC1=O)C(C)C
notes: also called Ac-RDLADVK$SLV$ES-NH2
As to B4, the IC50 is no less than 100 µM.

B5: SP9 (peptide)
peptide: Ac-RDL[S5]NVK[S5]SLVNES-NH2
modifications: staple 4-8
SMILES: CC(=O)N[C@@H](CCCNC(=N)N)C(=O)N[C@@H](CC(=O)O)C(=O)N[C@@H](CC(C)C)C(=O)N[C@@]1(C)CCCC=CCCC[C@@](C)(C(=O)N[C@@H](CO)C(=O)N[C@@H](CC(C)C)C(=O)N[C@H](C(=O)N[C@@H](CC(N)=O)C(=O)N[C@@H](CCC(=O)O)C(=O)N[C@@H](CO)C(N)=O)C(C)C)NC(=O)[C@H](CCCCN)NC(=O)[C@H](C(C)C)NC(=O)[C@H](CC(N)=O)NC1=O
notes: also called Ac-RDL$NVK$SLVNES-NH2
Regarding B5, the half-inhibitory concentration (IC50) was no less than 100 µM.

B6: SP4 (peptide)
peptide: Ac-RNLADVK[S5]SLV[S5]ES-NH2
modifications: staple 8-12
SMILES: CC(=O)N[C@@H](CCCNC(=N)N)C(=O)N[C@@H](CC(N)=O)C(=O)N[C@@H](CC(C)C)C(=O)N[C@@H](C)C(=O)N[C@@H](CC(=O)O)C(=O)N[C@H](C(=O)N[C@@H](CCCCN)C(=O)N[C@@]1(C)CCCC=CCCC[C@@](C)(C(=O)N[C@@H](CCC(=O)O)C(=O)N[C@@H](CO)C(N)=O)NC(=O)[C@H](C(C)C)NC(=O)[C@H](CC(C)C)NC(=O)[C@H](CO)NC1=O)C(C)C
notes: also called Ac-RNLADVK$SLV$ES-NH2
For the molecule B6, the IC50 is no less than 100 µM.

B7: SP33 (peptide)
peptide: Ac-RDLANVV[S5]SLV[S5]ES-NH2
modifications: staple 8-12
SMILES: CC(=O)N[C@@H](CCCNC(=N)N)C(=O)N[C@@H](CC(=O)O)C(=O)N[C@@H](CC(C)C)C(=O)N[C@@H](C)C(=O)N[C@@H](CC(N)=O)C(=O)N[C@H](C(=O)N[C@H](C(=O)N[C@@]1(C)CCCC=CCCC[C@@](C)(C(=O)N[C@@H](CCC(=O)O)C(=O)N[C@@H](CO)C(N)=O)NC(=O)[C@H](C(C)C)NC(=O)[C@H](CC(C)C)NC(=O)[C@H](CO)NC1=O)C(C)C)C(C)C
notes: also called Ac-RDLANVV$SLV$ES-NH2
On to B7, for which the IC50 is no less than 100 µM.

B8: SP32 (peptide)
peptide: Ac-RDLANVI[S5]SLV[S5]ES-NH2
modifications: staple 8-12
SMILES: CC[C@H](C)[C@H](NC(=O)[C@@H](NC(=O)[C@H](CC(N)=O)NC(=O)[C@H](C)NC(=O)[C@H](CC(C)C)NC(=O)[C@H](CC(=O)O)NC(=O)[C@H](CCCNC(=N)N)NC(C)=O)C(C)C)C(=O)N[C@@]1(C)CCCC=CCCC[C@@](C)(C(=O)N[C@@H](CCC(=O)O)C(=O)N[C@@H](CO)C(N)=O)NC(=O)[C@H](C(C)C)NC(=O)[C@H](CC(C)C)NC(=O)[C@H](CO)NC1=O
notes: also called Ac-RDLANVI$SLV$ES-NH2
As to B8, the IC50 was no less than 100 µM.

B9: SP10 (peptide)
peptide: Ac-SAERDL[S5]DVK[S5]SLVNESEKR-NH2
modifications: staple 7-11
SMILES: CC(=O)N[C@@H](CO)C(=O)N[C@@H](C)C(=O)N[C@@H](CCC(=O)O)C(=O)N[C@@H](CCCNC(=N)N)C(=O)N[C@@H](CC(=O)O)C(=O)N[C@@H](CC(C)C)C(=O)N[C@@]1(C)CCCC=CCCC[C@@](C)(C(=O)N[C@@H](CO)C(=O)N[C@@H](CC(C)C)C(=O)N[C@H](C(=O)N[C@@H](CC(N)=O)C(=O)N[C@@H](CCC(=O)O)C(=O)N[C@@H](CO)C(=O)N[C@@H](CCC(=O)O)C(=O)N[C@@H](CCCCN)C(=O)N[C@@H](CCCNC(=N)N)C(N)=O)C(C)C)NC(=O)[C@H](CCCCN)NC(=O)[C@H](C(C)C)NC(=O)[C@H](CC(=O)O)NC1=O
Take B9: the IC50 is no less than 100 µM.

B10: SP22 (peptide)
peptide: Ac-SA[S5]RDL[S5]DVKSSLVNESEKR-NH2
modifications: staple 3-7
SMILES: CC(=O)N[C@@H](CO)C(=O)N[C@@H](C)C(=O)N[C@@]1(C)CCCC=CCCC[C@@](C)(C(=O)N[C@@H](CC(=O)O)C(=O)N[C@H](C(=O)N[C@@H](CCCCN)C(=O)N[C@@H](CO)C(=O)N[C@@H](CO)C(=O)N[C@@H](CC(C)C)C(=O)N[C@H](C(=O)N[C@@H](CC(N)=O)C(=O)N[C@@H](CCC(=O)O)C(=O)N[C@@H](CO)C(=O)N[C@@H](CCC(=O)O)C(=O)N[C@@H](CCCCN)C(=O)N[C@@H](CCCNC(=N)N)C(N)=O)C(C)C)C(C)C)NC(=O)[C@H](CC(C)C)NC(=O)[C@H](CC(=O)O)NC(=O)[C@H](CCCNC(=N)N)NC1=O
Regarding B10, the IC50 is no less than 100 µM.

B11: SP12 (peptide)
peptide: Ac-SAERDLADVK[S5]SLV[S5]ESEKR-NH2
modifications: staple 11-15
SMILES: CC(=O)N[C@@H](CO)C(=O)N[C@@H](C)C(=O)N[C@@H](CCC(=O)O)C(=O)N[C@@H](CCCNC(=N)N)C(=O)N[C@@H](CC(=O)O)C(=O)N[C@@H](CC(C)C)C(=O)N[C@@H](C)C(=O)N[C@@H](CC(=O)O)C(=O)N[C@H](C(=O)N[C@@H](CCCCN)C(=O)N[C@@]1(C)CCCC=CCCC[C@@](C)(C(=O)N[C@@H](CCC(=O)O)C(=O)N[C@@H](CO)C(=O)N[C@@H](CCC(=O)O)C(=O)N[C@@H](CCCCN)C(=O)N[C@@H](CCCNC(=N)N)C(N)=O)NC(=O)[C@H](C(C)C)NC(=O)[C@H](CC(C)C)NC(=O)[C@H](CO)NC1=O)C(C)C
Consider B11, for which the 50% inhibitory concentration (IC50) was 85 µM.
